Substitutions are numbered along the chain they refer to. Values belong to the binder of their own block, whether it stands above or below them.
Biological target: human Epidermal Growth Factor Receptor (huEGFR) over-expressed in mcl-1-/- mouse embryonic fibroblasts (human, UniProt P00533 25-1210)
Test: cell-based or functional assay

B1: AbK-TV (antibody, V domains shown)
VH: EVQLQESGPGLVKPSQTLSLTCTVSGYSISRDFAWNWIRQPPGKGLEWMGYISYNGNTRYQPSLKSRITISRDTSKNQFFLKLNSVTAADTATYYCVTASRGFPWWGQGTLVTVSS
VL: DIQMTQSPSSMSVSVGDRVTITCHSSQDITYNVGWLQQKPGKSFKGLIYHGSNLDHGVPSRFSGSGSGTDYTLTISSLQPEDFATYYCVQYDDFPWTFGGGTKLEIKR
modifications: synthon TV on reduced interchain Cys
- huEGFR^+ mcl-1^-/- MEF EC50: 0.00015 µM

B2: AbG-WD (antibody, V domains shown)
VH: B1 VH with R31N, P41L, N55K, F103L, W105Y
VL: B1 VL with V33I, S52A, H56D, D93E
modifications: synthon WD on reduced interchain Cys
- huEGFR^+ mcl-1^-/- MEF EC50: 0.0058 µM

B4: AbK-YY (antibody, V domains shown)
VH: B1 VH
VL: B1 VL
modifications: synthon YY on reduced interchain Cys
- huEGFR^+ mcl-1^-/- MEF EC50: 0.047 µM

B6: AbK-AAD (antibody, V domains shown)
VH: B1 VH
VL: B1 VL
modifications: synthon AAD on reduced interchain Cys
- huEGFR^+ mcl-1^-/- MEF EC50: 0.0004 µM

B7: AbA-WD (antibody, V domains shown)
VH: B1 VH with W105Y
VL: B1 VL with T30N, Y31S, V33I, S52T, H56D, D92A, D93Q
modifications: synthon WD on reduced interchain Cys
- huEGFR^+ mcl-1^-/- MEF EC50: 0.304 µM

B8: AbG-LB (antibody, V domains shown)
VH: B1 VH with R31N, P41L, N55K, F103L, W105Y
VL: B1 VL with V33I, S52A, H56D, D93E
modifications: synthon LB on reduced interchain Cys
- huEGFR^+ mcl-1^-/- MEF EC50: 0.024 µM

B9: AbK-LB (antibody, V domains shown)
VH: B1 VH
VL: B1 VL
modifications: synthon LB on reduced interchain Cys
- huEGFR^+ mcl-1^-/- MEF EC50: 0.017 µM

B13: AbB-WD (antibody, V domains shown)
VH: B1 VH with R31N, N55K
VL: B1 VL with T30N, Y31S, V33I, S52T, H56D, D92A, D93Q
modifications: synthon WD on reduced interchain Cys
- huEGFR^+ mcl-1^-/- MEF EC50: 0.023 µM

B14: AbA-TV (antibody, V domains shown)
VH: B1 VH with W105Y
VL: B1 VL with T30N, Y31S, V33I, S52T, H56D, D92A, D93Q
modifications: synthon TV on reduced interchain Cys
- huEGFR^+ mcl-1^-/- MEF EC50: 0.003 µM

More lines, now with the values ahead:

- huEGFR^+ mcl-1^-/- MEF EC50: 0.186 µM
B3: AbA-ZZ (antibody, V domains shown)
VH: B1 VH with W105Y
VL: B1 VL with T30N, Y31S, V33I, S52T, H56D, D92A, D93Q
modifications: synthon ZZ on reduced interchain Cys

- huEGFR^+ mcl-1^-/- MEF EC50: 0.0034 µM
B5: AbK-AAA (antibody, V domains shown)
VH: B1 VH
VL: B1 VL
modifications: synthon AAA on reduced interchain Cys

- huEGFR^+ mcl-1^-/- MEF EC50: 0.027 µM
B10: AbA-LB (antibody, V domains shown)
VH: B1 VH with W105Y
VL: B1 VL with T30N, Y31S, V33I, S52T, H56D, D92A, D93Q
modifications: synthon LB on reduced interchain Cys

- huEGFR^+ mcl-1^-/- MEF EC50: 0.035 µM
B11: AbK-WD (antibody, V domains shown)
VH: B1 VH
VL: B1 VL
modifications: synthon WD on reduced interchain Cys

- huEGFR^+ mcl-1^-/- MEF EC50: 0.031 µM
B12: AbB-LB (antibody, V domains shown)
VH: B1 VH with R31N, N55K
VL: B1 VL with T30N, Y31S, V33I, S52T, H56D, D92A, D93Q
modifications: synthon LB on reduced interchain Cys

- huEGFR^+ mcl-1^-/- MEF EC50: 0.104 µM
B15: AbA-ZT (antibody, V domains shown)
VH: B1 VH with W105Y
VL: B1 VL with T30N, Y31S, V33I, S52T, H56D, D92A, D93Q
modifications: synthon ZT on reduced interchain Cys

Reference: patent publication US20190153108A1 (AbbVie / Abbott, published 2019)
